Values of other authors, collected in article PMC5576430.
pKd: −log10 of the molar value. Where two headings read alike, the source gives them in different places. One block for each substance: values may come before it.

Columns and labels:
p300 CH1 (Homo sapiens) [1] = molecular target: p300 CH1 (Homo sapiens) (UniProt Q09472)
p300 CH1 (Homo sapiens) [2] = molecular target: p300 CH1 (Homo sapiens) (UniProt Q09472); assay: tryptophan fluorescence
HIF-1α (Homo sapiens) = HIF-1α (Homo sapiens) (UniProt Q16665)

UniProt Q09472, sequence (Q09472 331-417): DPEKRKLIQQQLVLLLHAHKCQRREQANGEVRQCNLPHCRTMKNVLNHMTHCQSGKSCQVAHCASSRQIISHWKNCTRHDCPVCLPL

pKd (p300 CH1 (Homo sapiens) [1]): 6.08
Substance: HIF-1α C-TAD helix 2 peptide

pKd (p300 CH1 (Homo sapiens) [2]): 5.22
Substance: HIF-1α helix 3 unconstrained peptide helix 3 (from UniProt Q16665)

pKd (HIF-1α (Homo sapiens)): 6.91
Substance: cyclo-CLLFVY
